Results on seven compounds are retold here after paper PMC11931990, “Interaction between bacterial phytochromes Agp1 and Agp2 of Agrobacterium fabrum by fluorescence resonance energy transfer and docking studies” (Febs Letters, 2025).

For assay [1], the target named is Agp2, full length wild-type A. fabrum phytochrome, labeled with Atto-495 (Agrobacterium fabrum). In words: FRET or BRET. For orientation: Bioluminescence resonance energy transfer reports proximity on the nanometre scale.
Another assay concerns the target T1, Agp2-PCM (Agrobacterium fabrum, UniProt A9CI81).
T1 construct: gene Atu2165; photosensory chromophore module (PAS, GAF, PHY)
T1 sequence (A9CI81 1-501): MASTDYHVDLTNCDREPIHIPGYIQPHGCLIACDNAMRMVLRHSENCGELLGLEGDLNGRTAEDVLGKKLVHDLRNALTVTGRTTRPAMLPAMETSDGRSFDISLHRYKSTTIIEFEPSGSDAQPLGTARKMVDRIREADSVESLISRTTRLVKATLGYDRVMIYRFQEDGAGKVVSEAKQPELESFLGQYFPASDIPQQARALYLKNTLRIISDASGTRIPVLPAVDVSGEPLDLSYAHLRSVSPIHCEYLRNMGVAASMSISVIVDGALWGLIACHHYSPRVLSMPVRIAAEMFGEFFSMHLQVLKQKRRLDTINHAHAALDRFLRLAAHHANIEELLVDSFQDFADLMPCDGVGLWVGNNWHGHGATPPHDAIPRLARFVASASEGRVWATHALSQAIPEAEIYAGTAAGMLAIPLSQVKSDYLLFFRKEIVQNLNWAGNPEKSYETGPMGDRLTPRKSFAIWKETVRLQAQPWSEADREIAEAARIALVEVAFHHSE
In words: UV/vis absorbance after chromophore assembly and desalting. The class given is binding. The settings on record: covalent (Cys13); threefold molar excess BV, 2 h, RT, pH 7.8, 1 mM TCEP; Atto-495 labelled afterwards.

The target in a further assay is T2, Agp2 (Agrobacterium fabrum, UniProt A9CI81).
T2 construct: gene Atu2165; full length (PAS-GAF-PHY-histidine kinase-response regulator), C-terminal His6, E. coli DH5-alpha, pAg2 (pET21b-based), purified apoprotein, homodimer
T2 sequence (A9CI81 1-850): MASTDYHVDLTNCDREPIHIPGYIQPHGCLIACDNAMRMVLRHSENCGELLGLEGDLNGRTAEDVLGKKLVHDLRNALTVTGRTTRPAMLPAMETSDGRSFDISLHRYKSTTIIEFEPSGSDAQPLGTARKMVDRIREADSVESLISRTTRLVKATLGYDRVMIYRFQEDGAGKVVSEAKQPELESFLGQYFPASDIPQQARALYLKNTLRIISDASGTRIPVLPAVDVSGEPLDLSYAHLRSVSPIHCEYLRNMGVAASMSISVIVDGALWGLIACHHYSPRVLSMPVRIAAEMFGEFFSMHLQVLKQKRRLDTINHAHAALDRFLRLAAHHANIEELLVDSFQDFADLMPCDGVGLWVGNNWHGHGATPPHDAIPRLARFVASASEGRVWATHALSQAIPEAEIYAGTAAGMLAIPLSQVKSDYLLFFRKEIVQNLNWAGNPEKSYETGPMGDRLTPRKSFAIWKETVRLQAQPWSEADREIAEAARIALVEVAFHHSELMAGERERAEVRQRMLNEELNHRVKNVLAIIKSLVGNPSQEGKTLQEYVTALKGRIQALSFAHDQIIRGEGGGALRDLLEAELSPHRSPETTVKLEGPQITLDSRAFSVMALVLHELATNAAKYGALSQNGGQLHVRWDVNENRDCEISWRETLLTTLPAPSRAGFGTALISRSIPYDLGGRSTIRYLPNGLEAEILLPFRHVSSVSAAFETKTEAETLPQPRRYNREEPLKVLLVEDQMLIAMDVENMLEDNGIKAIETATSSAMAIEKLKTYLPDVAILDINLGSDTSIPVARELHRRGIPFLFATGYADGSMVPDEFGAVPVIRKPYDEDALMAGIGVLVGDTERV
The assay is described as above. The class given is binding. The settings on record: covalent (Cys13); threefold molar excess BV, 2 h, RT, pH 7.8, 1 mM TCEP; Atto-495 labelled afterwards.

Assay [2] deals with Agp2-PCM, photosensory chromophore module of Agp2, labeled with Atto-495 (Agrobacterium fabrum). The experiment in a line: FRET or BRET.

In assay [1], “Agp1 K554C, full-length A. fabrum phytochrome Agp1 mutant labeled with Atto-565 (natural protein)” yielded an E FRET (FRET transfer efficiency) of 0.28.
Regarding `C=CC1=C(C)/C(=C/C2=NC(=C\c3[nH]c(/C=C4\NC(=O)C(C)=C4C=C)c(C)c3CCC(=O)O)/C(CCC(=O)O)=C2C)NC1=O` [Biliverdin], on Agp2-PCM, the “Agp2 PCM” value is 0.98 ± 0.01 mol/mol. The Agp2 at Agp2 is 0.70 ± 0.04 mol/mol.
Turning to “Agp1 K517C, full-length A. fabrum phytochrome Agp1 mutant labeled with Atto-565 (natural protein)”, the results for the E FRET (FRET transfer efficiency) in assay [1] and in assay [2] were 0.15 and 0.14, respectively.
“Agp1 S122C, full-length A. fabrum phytochrome Agp1 mutant labeled with Atto-565 (natural protein)” showed an E FRET (FRET transfer efficiency) in assay [1] of 0.09.
In turn, “Agp1 R535C, full-length A. fabrum phytochrome Agp1 mutant labeled with Atto-565 (natural protein)” had an E FRET (FRET transfer efficiency) in assay [1] of 0.21.
In turn, “Agp1 R603C, full-length A. fabrum phytochrome Agp1 mutant labeled with Atto-565 (natural protein)” had an E FRET (FRET transfer efficiency) in assay [1] of 0.2.
Still for that read-out and setting: to “Agp1 A362C, full-length A. fabrum phytochrome Agp1 mutant labeled with Atto-565 (natural protein)” belongs 0.1.
